The values that follow come from US20260216354A1, “ANTI-CMET ANTIBODY, ANTIBODY-DRUG CONJUGATE, AND PREPARATION METHOD THEREFOR AND USE THEREOF” (MEDILINK THERAPEUTICS (SUZHOU) CO., LTD., priority 2022, published 2026).

Assay [1] deals with human c-Met on tumor cells (MKN45, NCI-H358, NCI-H69, LS1034, NCI-H716, MDA-MB-468) (human) (UniProt P08581). In words: flow cytometry on LS1034 cells. On the technique in general: Flow cytometry measures light scatter and fluorescence of single cells or particles in a stream.
human c-Met on tumor cells (MKN45, NCI-H358, NCI-H69, LS1034, NCI-H716, MDA-MB-468) (human), sequence (P08581 25-1390): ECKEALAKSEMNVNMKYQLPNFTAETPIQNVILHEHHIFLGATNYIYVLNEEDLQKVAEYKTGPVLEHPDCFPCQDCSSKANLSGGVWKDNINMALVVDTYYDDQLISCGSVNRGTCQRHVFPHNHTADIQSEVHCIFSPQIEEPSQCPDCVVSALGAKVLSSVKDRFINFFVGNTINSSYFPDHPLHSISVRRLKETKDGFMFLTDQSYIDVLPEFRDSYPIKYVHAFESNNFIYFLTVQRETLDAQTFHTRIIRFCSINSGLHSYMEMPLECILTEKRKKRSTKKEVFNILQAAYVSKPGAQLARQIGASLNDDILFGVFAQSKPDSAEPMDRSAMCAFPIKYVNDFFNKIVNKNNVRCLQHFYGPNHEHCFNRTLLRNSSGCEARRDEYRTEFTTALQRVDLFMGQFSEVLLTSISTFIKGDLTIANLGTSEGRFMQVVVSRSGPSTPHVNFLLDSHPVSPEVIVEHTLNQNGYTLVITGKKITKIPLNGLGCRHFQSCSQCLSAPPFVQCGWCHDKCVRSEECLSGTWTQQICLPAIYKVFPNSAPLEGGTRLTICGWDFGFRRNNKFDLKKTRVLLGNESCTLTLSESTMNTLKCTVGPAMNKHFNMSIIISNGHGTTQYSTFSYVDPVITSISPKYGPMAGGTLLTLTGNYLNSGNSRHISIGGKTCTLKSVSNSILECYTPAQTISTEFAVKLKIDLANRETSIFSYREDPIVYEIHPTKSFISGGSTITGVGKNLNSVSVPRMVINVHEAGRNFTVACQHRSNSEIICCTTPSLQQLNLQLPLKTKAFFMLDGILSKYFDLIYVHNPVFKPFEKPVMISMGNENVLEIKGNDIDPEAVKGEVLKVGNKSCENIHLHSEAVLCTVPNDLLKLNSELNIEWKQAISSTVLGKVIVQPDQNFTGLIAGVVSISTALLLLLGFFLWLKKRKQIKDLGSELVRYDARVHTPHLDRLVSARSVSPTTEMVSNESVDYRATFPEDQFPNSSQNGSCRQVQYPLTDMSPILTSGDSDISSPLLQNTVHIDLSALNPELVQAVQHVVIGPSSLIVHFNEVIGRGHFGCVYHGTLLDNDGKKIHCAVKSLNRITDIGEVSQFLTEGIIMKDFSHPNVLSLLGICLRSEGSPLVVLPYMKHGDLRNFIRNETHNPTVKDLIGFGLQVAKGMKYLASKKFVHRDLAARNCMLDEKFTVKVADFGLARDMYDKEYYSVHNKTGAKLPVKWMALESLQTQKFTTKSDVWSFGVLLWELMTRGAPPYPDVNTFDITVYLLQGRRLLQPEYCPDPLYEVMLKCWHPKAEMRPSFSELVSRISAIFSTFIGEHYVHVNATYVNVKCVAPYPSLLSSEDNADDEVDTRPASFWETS
Assay [2] has the same target. Kind of assay: flow cytometry on NCI-H69 cells.
Assay [3] has the same target. In words: flow cytometry on NCI-H358 cells.
In assay [4] the target is h.cMet-ECD-His (Human HGF R/c-MET Protein, His Tag, Acrobiosystems MET-H5227) (human) (UniProt P08581). Kind of assay: ELISA, h.cMet-ECD-His captured by anti-His-Rabbit Fc. In general terms: An ELISA detects its analyte on a solid surface through an enzyme-linked reagent.
h.cMet-ECD-His (Human HGF R/c-MET Protein, His Tag, Acrobiosystems MET-H5227) (human), sequence (P08581 25-932): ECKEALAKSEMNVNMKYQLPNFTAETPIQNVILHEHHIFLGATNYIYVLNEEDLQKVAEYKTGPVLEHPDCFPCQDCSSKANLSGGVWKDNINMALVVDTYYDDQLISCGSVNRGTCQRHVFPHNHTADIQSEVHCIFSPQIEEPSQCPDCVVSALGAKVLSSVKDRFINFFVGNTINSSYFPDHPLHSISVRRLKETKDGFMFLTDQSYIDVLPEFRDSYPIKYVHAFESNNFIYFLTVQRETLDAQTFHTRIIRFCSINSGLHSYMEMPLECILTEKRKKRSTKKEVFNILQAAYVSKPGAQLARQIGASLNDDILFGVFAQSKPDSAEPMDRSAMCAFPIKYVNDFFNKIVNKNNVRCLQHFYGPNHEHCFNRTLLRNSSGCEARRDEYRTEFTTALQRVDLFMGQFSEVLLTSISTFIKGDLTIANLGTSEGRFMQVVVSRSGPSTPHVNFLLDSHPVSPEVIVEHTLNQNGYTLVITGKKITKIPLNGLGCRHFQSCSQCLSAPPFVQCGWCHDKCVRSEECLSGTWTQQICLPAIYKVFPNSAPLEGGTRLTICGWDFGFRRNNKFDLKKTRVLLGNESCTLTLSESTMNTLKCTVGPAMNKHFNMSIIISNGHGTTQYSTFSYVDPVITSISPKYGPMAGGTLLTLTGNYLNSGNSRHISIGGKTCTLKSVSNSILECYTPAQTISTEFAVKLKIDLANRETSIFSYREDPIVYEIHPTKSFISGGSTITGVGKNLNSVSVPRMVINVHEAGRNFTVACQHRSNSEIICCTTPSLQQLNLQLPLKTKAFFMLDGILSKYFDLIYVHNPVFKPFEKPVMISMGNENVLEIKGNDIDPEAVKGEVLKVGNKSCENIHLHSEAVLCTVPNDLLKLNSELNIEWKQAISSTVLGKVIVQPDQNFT
The target in assay [5] is human c-Met on tumor cells (MKN45, NCI-H358, NCI-H69, LS1034, NCI-H716, MDA-MB-468) (human) (UniProt P08581). In words: flow cytometry on NCI-H716 cells.

B1: ABT700-vc-MMAE (DAR9.7) (antibody, INN chains, looked up, V domains shown)
VH: QVQLVQSGAEVKKPGASVKVSCKASGYIFTAYTMHWVRQAPGQGLEWMGWIKPNNGLANYAQKFQGRVTMTRDTSISTAYMELSRLRSDDTAVYYCARSEITTEFDYWGQGTLVTVSS
VL: DIVMTQSPDSLAVSLGERATINCKSSESVDSYANSFLHWYQQKPGQPPKLLIYRASTRESGVPDRFSGSGSGTDFTLTISSLQAEDVAVYYCQQSKEDPLTFGGGTKVEIK
modifications: vc-MMAE, DAR 9.7
Take B1: the EC50 in assay [1] is 0.852 nM; in assay [2], 0.212 nM; in assay [3], 0.917 nM; in assay [4] it was 2.43 µg/mL. The Maximum signal value in assay [1] was 8960; in assay [2], 8210; in assay [3], 32400.

B2: ABT700-Vc-MMAE (DAR4) (antibody, INN chains, looked up, V domains shown)
VH: QVQLVQSGAEVKKPGASVKVSCKASGYIFTAYTMHWVRQAPGQGLEWMGWIKPNNGLANYAQKFQGRVTMTRDTSISTAYMELSRLRSDDTAVYYCARSEITTEFDYWGQGTLVTVSS
VL: DIVMTQSPDSLAVSLGERATINCKSSESVDSYANSFLHWYQQKPGQPPKLLIYRASTRESGVPDRFSGSGSGTDFTLTISSLQAEDVAVYYCQQSKEDPLTFGGGTKVEIK
modifications: vc-MMAE, DAR 4
In assay [5], B2 had an EC50 of 11.6 nM and a Maximum signal value of 3740.

Broadly, the EC50 is the concentration that produces a half-maximal response.
